Legend:
Conditions in all cases: both partners purified
[1] = target: Cy3-labelled, prenylated Cdc42 G12V, GTPγS-bound (Cy3 at the N-terminus (Cy3 N-t labeled LPETGG peptide joined by sortase); geranylgeranyl by in vitro prenylation (C-terminal prenyl moiety); GTPγS-bound); test: membrane extraction (wash-off) assay on supported lipid bilayers, TIRF; as above, GDI titrated between 0 and 20 µM; Koff of the GTPase from the membrane plotted against GDI concentration and fitted with a hyperbolic function (Kd, Vmax); apparent affinities
Sequence of Cy3-labelled, prenylated Cdc42 G12V, GTPγS-bound (Cy3 at the N-terminus (Cy3 N-t labeled LPETGG peptide joined by sortase); geranylgeranyl by in vitro prenylation (C-terminal prenyl moiety); GTPγS-bound) (chain, as listed by the source G12V): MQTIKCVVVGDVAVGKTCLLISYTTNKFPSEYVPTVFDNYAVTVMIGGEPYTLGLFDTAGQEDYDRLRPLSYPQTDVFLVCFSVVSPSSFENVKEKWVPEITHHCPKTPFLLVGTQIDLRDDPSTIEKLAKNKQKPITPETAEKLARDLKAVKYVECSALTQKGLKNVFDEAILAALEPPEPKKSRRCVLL

[2] = target: Cy3-labelled, prenylated Rho G14V, GTPγS-bound (Cy3 at the N-terminus (Cy3 N-t labeled LPETGG peptide joined by sortase); geranylgeranyl by in vitro prenylation (C-terminal prenyl moiety); GTPγS-bound); test: as above
Sequence of Cy3-labelled, prenylated Rho G14V, GTPγS-bound (Cy3 at the N-terminus (Cy3 N-t labeled LPETGG peptide joined by sortase); geranylgeranyl by in vitro prenylation (C-terminal prenyl moiety); GTPγS-bound) (chain, as listed by the source G14V): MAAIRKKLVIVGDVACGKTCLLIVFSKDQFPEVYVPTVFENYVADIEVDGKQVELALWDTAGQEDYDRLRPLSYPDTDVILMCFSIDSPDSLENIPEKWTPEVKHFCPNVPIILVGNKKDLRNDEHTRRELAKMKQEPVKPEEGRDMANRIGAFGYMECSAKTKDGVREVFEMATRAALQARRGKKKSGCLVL

[3] = target: Cy3-labelled, prenylated Cdc42, wild type, GDP-bound (Cy3 at the N-terminus (Cy3 N-t labeled LPETGG peptide joined by sortase); geranylgeranyl by in vitro prenylation (C-terminal prenyl moiety); GDP-bound); test: membrane extraction (wash-off) assay on supported lipid bilayers, TIRF; Cy3-labelled prenylated GTPase (200 nM) equilibrated on 100% DOPC supported lipid bilayers, flushed at 10 µL/sec with imaging buffer (20 mM HEPES pH 7.0, 150 mM KCl, 1.5 mM MgCl2, 0.5 mM EGTA, 100 µM GDP/GTP) alone or with 5 µM RhoGDI; decay fitted with a monoexponential function
Sequence of Cy3-labelled, prenylated Cdc42, wild type, GDP-bound (Cy3 at the N-terminus (Cy3 N-t labeled LPETGG peptide joined by sortase); geranylgeranyl by in vitro prenylation (C-terminal prenyl moiety); GDP-bound) (P60953 whole entry): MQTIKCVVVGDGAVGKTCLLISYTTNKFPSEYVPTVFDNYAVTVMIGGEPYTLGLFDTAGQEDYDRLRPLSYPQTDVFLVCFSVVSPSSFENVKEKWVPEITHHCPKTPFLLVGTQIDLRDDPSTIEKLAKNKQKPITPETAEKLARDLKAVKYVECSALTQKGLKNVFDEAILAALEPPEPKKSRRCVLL

B1: Xenopus laevis RhoGDI, wild type (natural protein)
chain: MAEHEPTPEQLHQIAAENQDEEHSVDYKPPAQKSIKEIQELDQDDESLRKYKEALLGSLPSSADPEASNVVVTKLTLLCDCAPGPLELDLTGDLEKFKKQSFTLKEGVEYRIKISFKVNKEIVSGLRYQQQTYRKGVRLDRTRYMVGSYGPRVDEYEFLTPIEEAPNGMLARGCYNIKSLFTDDDKSNHLSWEWNLHIKNDWKS
[1]
  fold difference in extraction, GDP-bound GTPase over GTPγS-bound G12V: 1.5 fold
[2]
  fold difference in extraction, GDP-bound GTPase over GTPγS-bound G14V: 1.5 fold
[3]
  fold acceleration of the dissociation of Cdc42:GDP from the membrane by excess GDI: ~20 fold
